Measured values: patent US20090123371A1

Molecular target: EphA2 receptor tyrosine kinase (human) (UniProt P29317)
Experiment: cell-based or functional assay

DT390-ephrinA1 (from UniProt P00588 33-422)
cell proliferation assay, U-251 MG GBM cells: 15 nM
